The results in this text go back to article PMC6796926, “Pioneering function of Isl1 in the epigenetic control of cardiomyocyte cell fate”.

Data set [1] concerns the target T1, Isl1 homeodomain (Isl1-HD) (UniProt P61372 181-240).
T1 sequence: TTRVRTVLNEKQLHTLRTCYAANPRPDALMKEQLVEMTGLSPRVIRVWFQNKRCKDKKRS
In words: competition; 80x excess vs free and nucleosomal Ttn DNA, 0.5 uM Isl1; 40 mM KCl, 15 mM HEPES pH 8.0, 1 mM EDTA, 0.5 mM DTT, 2 mM MgCl2, 5% glycerol, 10 ng/ul poly dI/dC, 0.1 mg/ml BSA, 30 min, RT; 4% PAGE in 0.5x TBE. The following applies: protein: recombinant; tags: 6xHis; blunt.

Data set [2] concerns the target T1, Isl1 homeodomain (Isl1-HD). In words: EMSA; 0-1 uM Isl1; 40 mM KCl, 15 mM HEPES pH 8.0, 1 mM EDTA, 0.5 mM DTT, 2 mM MgCl2, 5% glycerol, 10 ng/ul poly dI/dC, 0.1 mg/ml BSA, 30 min, RT; 4% PAGE in 0.5x TBE. As to conditions: protein: recombinant; tags: 6xHis; label: biotin (PCR primers); blunt. A general note: In EMSA bound probe runs differently from free probe, usually more slowly.

B1: nonspecific competitor (NS) (dsDNA)
DNA 1: CAAGCAAAACAAACCA
DNA 2: TGGTTTGTTTTGCTTG
B1: in data set [1], the binding result is reported as “no binding”.

B2: specific competitor (Insulin enhancer) (dsDNA)
DNA 1: CCCTTGTTAAGACTCTAATTACCCTAG
DNA 2: CTAGGGTAATTAGAGTCTTAACAAGGG
Consider B2, for which the binding result in data set [1] is “binds”.

B3: free Ttn DNA (dsDNA)
DNA 1: CGGTGTCTGCTATCACTCAGTTTCATCCCTTTCTTCCCAAATGGCCAGTTTCATGTTGTGTATCTTGACAGTGACTCCCAACCAGAGACTCCTGTTAAGGGAACTTGTCAGTCATAATAGACAATAAGTGAACTTCTTGTTCGGGGTGCTCAATAATTTGCT
DNA 2: AGCAAATTATTGAGCACCCCGAACAAGAAGTTCACTTATTGTCTATTATGACTGACAAGTTCCCTTAACAGGAGTCTCTGGTTGGGAGTCACTGTCAAGATACACAACATGAAACTGGCCATTTGGGAAGAAAGGGATGAAACTGAGTGATAGCAGACACCG
As to B3, the binding result in data set [2] is given as “binds”.
